Laboratory results taken from PMC6450558.

Substrate: CC(=O)N[C@H]1[C@H]([C@H](O)[C@H](O)CO)O[C@](OP(=O)(O)OC[C@H]2O[C@@H](n3ccc(N)nc3=O)[C@H](O)[C@@H]2O)(C(=O)O)C[C@@H]1O
Experiment: sialyltransferase kinetics, donor varied
Assay type: biochemical, Homo sapiens
Settings: acceptor LacNAc-butyl (11), fixed concentration

Row | Protein | Km [µM] | kcat [s⁻¹] | kcat/Km [M⁻¹ s⁻¹]
1 | human ST3Gal-IV (Homo sapiens) (protein) MVSKSRWKLLAMLALVLVVMVWYSISREDRYIELFYFPIPEKKEPCLQGEAESKASKLFGNYSRDQPIFLRLEDYFWVKTPSAYELPYGTKGSEDLLLRVLAITSSSIPKNIQSLRCRRCVVVGNGHRLRNSSLGDAINKYDVVIRLNNAPVAGYEGDVGSKTTMRLFYPESAHFDPKVENNPDTLLVLVAFKAMDFHWIETILSDKKRVRKGFWKQPPLIWDVNPKQIRILNPFFMEIAADKLLSLPMQQPRKIKQKPTTGLLAITLALHLCDLVHIAGFGYPDAYNKKQTIHYYEQITLKSMAGSGHNVSQEALAIKRMLEMGAIKNLTSF | 300 ± 66 | 0.0233 ± 0.00167 | 78.3 ± 25
2 | human ST6Gal-I (Homo sapiens) (protein) MIHTNLKKKFSCCVLVFLLFAVICVWKEKKKGSYYDSFKLQTKEFQVLKSLGKLAMGSDSQSVSSSSTQDPHRGRQTLGSLRGLAKAKPEASFQVWNKDSSSKNLIPRLQKIWKNYLSMNKYKVSYKGPGPGIKFSAEALRCHLRDHVNVSMVEVTDFPFNTSEWEGYLPKESIRTKAGPWGRCAVVSSAGSLKSSQLGREIDDHDAVLRFNGAPTANFQQDVGTKTTIRLMNSQLVTTEKRFLKDSLYNEGILIVWDPSVYHSDIPKWYQNPDYNFFNNYKTYRKLHPNQPFYILKPQMPWELWDILQEISPEEIQPNPPSSGMLGIIIMMTLCDQVDIYEFLPSKRKTDVCYYYQKFFDSACTMGAYHPLLYEKNLVKHLNQGTDEDIYLLGKATLPGFRTIHC | 119 ± 16 | 0.183 ± 0.00667 | 1530 ± 417
